From publication PMC2267099, “Inhibition of Horse Liver Alcohol Dehydrogenase by Methyltin Compounds” (Bioinorganic Chemistry and Applications, 2005) come the findings set out here.

Substrate in this data set: CCO
In words: purified protein. The format is biochemical, Equus caballus. As to conditions: no inhibitor, NAD+ 0.6 mM, pH 9.5 TRIS-HCl 0.05 M, room temperature.

B1: alcohol dehydrogenase from horse liver (HLADH) (Equus caballus) (protein)
chain: STAGKVIKCKAAVLWEEKKPFSIEEVEVAPPKAHEVRIKMVATGICRSDDHVVSGTLVTPLPVIAGHEAAGIVESIGEGVTTVRPGDKVIPLFTPQCGKCRVCKHPEGNFCLKNDLSMPRGTMQDGTSRFTCRGKPIHHFLGTSTFSQYTVVDEISVAKIDAASPLEKVCLIGCGFSTGYGSAVKVAKVTQGSTCAVFGLGGVGLSVIMGCKAAGAARIIGVDINKDKFAKAKEVGATECVNPQDYKKPIQEVLTEMSNGGVDFSFEVIGRLDTMVTALSCCQEAYGVSVIVGVPPDSQNLSMNPMLLLSGRTWKGAIFGGFKSKDSVPKLVADFMAKKFALDPLITHVLPFEKINEGFDLLRSGESIRTILTF
notes: commercial native enzyme from horse liver (Fluka AG), full length, used as received
In general, Km refers to the concentration of substrate that gives half-maximal velocity. As to B1, the Km came to 46.7 ± 0.8 mM.
